# From article PMC8361696, “Regulation of aquaporin‐4 expression in the central nervous system investigated using M23‐AQP4 null mouse” (Glia, 2021)
# Target: the molecule itself
# Experiment: native gel or EMSA; blue native PAGE (3-9% gradient) of 50 ug spinal cord lysate in BN buffer (1% Triton X-100, 12 mM NaCl, 500 mM 6-aminohexanoic acid, 20 mM Bis-Tris pH 7.0), immunoblot with anti-AQP4
protein,measurement,value
"M1-AQP4 (M23I) of M23-null mouse spinal cord (natural protein, mouse (endogenous in spinal cord), UniProt P55088 1-323, looked up, mouse aquaporin-4, M1-AQP4 isoform with the methionine codon at position 23 replaced by isoleucine, so no M23-AQP4 is made; The mouse model is described in de Bellis et al., 2020; also called M1M23I; AQP4 of M23-null mice; source: endogenous, M23-null (CRISPR/Cas9 M23I knock-in) mouse spinal cord, lysate in BN buffer (1% Triton X-100)) MSDGAAARRWGKCGHSCSRESIIVAFKGVWTQAFWKAVSAEFLATLIFVLLGVGSTINWGGSENPLPVDMVLISLCFGLSIATMVQCFGHISGGHINPAVTVAMVCTRKISIAKSVFYIIAQCLGAIIGAGILYLVTPPSVVGGLGVTTVHGNLTAGHGLLVELIITFQLVFTIFASCDSKRTDVTGSIALAIGFSVAIGHLFAINYTGASMNPARSFGPAVIMGNWANHWIYWVGPIMGAVLAGALYEYVFCPDVELKRRLKEAFSKAAQQTKGSYMEVEDNRSQVETEDLILKPGVVHVIDIDRGEEKKGKDSSGEVLSSV",stoichiometry N,4
